Source: the supplement of paper PMC7877785
± gives the uncertainty stated by the source.

Assay: self-splicing fitness, log relative to wild type (ln ratio); higher = more splicing; Tetrahymena group I intron in knt gene, E. coli kanamycin selection, DiMSum; sequences stand for … in CUCUCU…GGAGGGAAAAGUUAUCAGGCAUGCACCUGGUAGCUAGUCUUUAAACCAAUAGAUUGCAUCGGUUUAAAAGGCAAGACCGUCAAAUUGCGGGAAAGGGGUCAACAGCCGUUCAGUACCAAGUCUCAGGGGAAACUUUGAGAUGGCCUUGCAAAGGGUAUGGUAAUAAGCUGACGGACAUGGUCCUAACCACGCAGCCAAGUCCUAAGUCAACAGAUCUUCUGUUGAUAUGGAUGCAGUUCACAGACUAAAUGUCGGUCGGGGAAGAUGUAUUCUUCUCAUAAGAUAUAGUCGGACCUCUCCUUAAUGGGAGCUAGCGGAUGAAGUGAUGCAACACUGGAGCCGCUGGGAACUAAUUUGUAUGCGAAAGUAUAUUGAUUAGUUUUGGAGUACUCGUGGUCG
Summary of the method: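 Library with all eight P1ex-region intron nucleotides randomised, intron inside the knt kanamycin-resistance gene on pET-22b(+), in E. coli BL21(DE3). Cells grew overnight at 37°C or 30°C on LB agar with or without 25 μg/mL kanamycin (plus 100 μg/mL carbenicillin, 50 μM IPTG, 0.2% rhamnose), in six replicate transformations. Pooled colonies were amplicon-sequenced on Illumina HiSeq 2500. DiMSum fitness is the error-weighted combination of wild-type-normalised replicate fold changes, kanamycin versus none.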

Row | Sequence | self-splicing fitness (ln) (30 °C) | self-splicing fitness (ln) (37 °C)
1 | UAAAAGCAAUAUUACGGAGA | -2.31 ± 0.27 | -1.83 ± 0.27
2 | UAAAAGCAAUAUUACGGAGC | -4.1 ± 0.25 | -3.36 ± 0.28
3 | UAAAAGCAAUAUUACGGCAU | -0.376 ± 0.091 | -0.235 ± 0.12
4 | UAAAAGCAAUAUUACGGGAA | -2.63 ± 0.2 | -1.18 ± 0.12
5 | UAAAAGCAAUAUUACGGUGU | -3.4 ± 0.13 | -2.83 ± 0.15
6 | UAAAAGCAAUAUUACGUACC | -2.18 ± 0.25 | -0.361 ± 0.21
7 | UAAAAGCAAUAUUACGUAUU | -2.24 ± 0.14 | -1.88 ± 0.19
8 | UAAAAGCAAUAUUACGUCUA | -0.487 ± 0.068 | 0.337 ± 0.097
9 | UAAAAGCAAUAUUACGUCUG | -0.0205 ± 0.058 | 0.201 ± 0.075
10 | UAAAAGCAAUAUUACGUGCG | -0.348 ± 0.07 | -0.119 ± 0.09
11 | UAAAAGCAAUAUUACGUGGA | -2.94 ± 0.13 | -1.52 ± 0.1
12 | UAAAAGCAAUAUUACGUGGG | -3.67 ± 0.23 | -1.44 ± 0.13
13 | UAAAAGCAAUAUUACGUUAC | -3.71 ± 0.22 | -2.78 ± 0.21
14 | UAACAGCAAUAUUACGAAAU | -3.46 ± 0.14 | -2.52 ± 0.18
15 | UAACAGCAAUAUUACGACGA | 0.245 ± 0.069 | 0.319 ± 0.083
16 | UAACAGCAAUAUUACGAGAA | -2.22 ± 0.22 | -2.07 ± 0.23
17 | UAACAGCAAUAUUACGAGAG | -3.21 ± 0.18 | -2.46 ± 0.13
18 | UAACAGCAAUAUUACGAGGA | -3.13 ± 0.2 | -1.49 ± 0.14
19 | UAACAGCAAUAUUACGAUAU | -2.28 ± 0.18 | -1.28 ± 0.2

Row | Sequence | self-splicing fitness (ln) (30 °C) | self-splicing fitness (ln) (37 °C)
20 | UAACAGCAAUAUUACGCAUG | -1.43 ± 0.086 | -0.695 ± 0.099
21 | UAACAGCAAUAUUACGCCCU | -1.18 ± 0.08 | 0.471 ± 0.12
22 | UAACAGCAAUAUUACGCCUA | -0.308 ± 0.064 | 0.598 ± 0.083
23 | UAACAGCAAUAUUACGCCUG | -0.264 ± 0.085 | 0.182 ± 0.11
24 | UAACAGCAAUAUUACGCGAA | -1.9 ± 0.11 | -0.949 ± 0.11
25 | UAACAGCAAUAUUACGCUAU | -2.86 ± 0.12 | -1.82 ± 0.11
26 | UAACAGCAAUAUUACGCUGA | -3.33 ± 0.2 | -1.61 ± 0.1
27 | UAACAGCAAUAUUACGGAAA | -2.91 ± 0.23 | -1.11 ± 0.14
28 | UAACAGCAAUAUUACGGAGG | -3.85 ± 0.16 | -1.87 ± 0.091
29 | UAACAGCAAUAUUACGGCAG | -0.752 ± 0.077 | -0.814 ± 0.084
30 | UAACAGCAAUAUUACGGGCA | -0.826 ± 0.085 | -0.324 ± 0.078
31 | UAACAGCAAUAUUACGGGGA | -2.36 ± 0.15 | -2.1 ± 0.097
32 | UAACAGCAAUAUUACGGUGU | -2.93 ± 0.11 | -2.01 ± 0.12
33 | UAACAGCAAUAUUACGUCAC | -2.97 ± 0.15 | -1.82 ± 0.16
34 | UAACAGCAAUAUUACGUCAU | -3.81 ± 0.16 | -1.74 ± 0.15
35 | UAACAGCAAUAUUACGUCCA | -0.357 ± 0.091 | -0.0151 ± 0.12
36 | UAACAGCAAUAUUACGUUGA | -2.95 ± 0.14 | -1.34 ± 0.1
37 | UAACAGCAAUAUUACGUUUA | -0.893 ± 0.063 | -0.563 ± 0.071
